These results are taken from PMC9888711, “Pneumococcal capsule expression is controlled through a conserved, distal cis-regulatory element during infection” (PLOS Pathogens, 2023).

Several values for one entry are separate records, joined by “and”; a condition that tells them apart may be missing. Identical values can stand only once.

In data set [1] the target is SpxR (SPD_0969), full-length recombinant (Streptococcus pneumoniae D39). Put plainly: SEC-MALS; Superdex 200 Increase 10/300 GL, 50 mM Tris-Cl pH 7.0, 500 mM NaCl, 1 mM TCEP, 70 uM, 25 C; no DNA. For orientation: SEC sorts molecules by how far they enter the pores of the column.
The target is the same in data set [2]. As to the kind of experiment: SEC; Superose 6 Increase 10/300 GL, 50 mM Tris-Cl pH 7.0, 500 mM NaCl, 1 mM TCEP; 300 uL at 70 uM; calibrated with molecular weight standards.
For data set [3] the target is unchanged. As to the kind of experiment: negative stain electron microscopy; SpxR with 37-CE DNA in high salt (50 mM Tris pH 7.0, 500 mM NaCl, 1 mM TCEP); 3D reconstruction, C2 symmetry, 20.9 A.
For data set [4] the target is unchanged. Put plainly: negative stain electron microscopy; SpxR with 37-CE DNA in low salt (final 50 mM NaCl, HEPES pH 7.5, 5 mM MgCl2, 1 mM CaCl2); 3D reconstruction, C3 symmetry, 21.5 A.
Data set [5] addresses T1, SpxRDBD (Streptococcus pneumoniae D39, UniProt A0A0H2ZR90 1-63). As to the kind of experiment: EMSA; EMSA: 20 mM HEPES pH 7.2, 50 mM NaCl, 5 mM MgCl2, 1 mM CaCl2, 0.1 mM EDTA, 12% glycerol, 10 mM DTT, 0.5 uM DNA, 400 ng poly(dI-dC); FP: same salts, 2% glycerol, 10 nM DNA (high salt 500 mM NaCl; Fig 5 legend says Tris pH 7.0); temperature not stated. The settings on record: protein: recombinant; tags: His6-SUMO removed by Ulp1; label: 6-FAM forward; blunt. On the technique in general: Mobility shift assays separate free from complexed probe on a gel.

The target of data set [6] is T2, CpsR (Streptococcus pneumoniae D39, UniProt A0A0H2ZMA3 1-247). The data set is described as above. The settings on record: protein: recombinant; tags: His6-SUMO removed by Ulp1; chain copies: 2; label: 6-FAM forward; blunt.
The target in data set [7] is T3, SpxR (Streptococcus pneumoniae D39, UniProt A0A0H2ZR90 1-425). Put plainly: fluorescence polarization; 50 mM NaCl; EMSA: 20 mM HEPES pH 7.2, 50 mM NaCl, 5 mM MgCl2, 1 mM CaCl2, 0.1 mM EDTA, 12% glycerol, 10 mM DTT, 0.5 uM DNA, 400 ng poly(dI-dC); FP: same salts, 2% glycerol, 10 nM DNA (high salt 500 mM NaCl; Fig 5 legend says Tris pH 7.0); temperature not stated. The note with it: protein: recombinant; tags: His6-SUMO removed by Ulp1; chain copies: 3; label: 6-FAM forward; blunt. Background: Polarisation of emitted light reports the rotation of a fluorescent probe.

Data set [8] addresses T1, SpxRDBD. As to the kind of experiment: EMSA; strongest of the extended truncations; EMSA: 20 mM HEPES pH 7.2, 50 mM NaCl, 5 mM MgCl2, 1 mM CaCl2, 0.1 mM EDTA, 12% glycerol, 10 mM DTT, 0.5 uM DNA, 400 ng poly(dI-dC); FP: same salts, 2% glycerol, 10 nM DNA (high salt 500 mM NaCl; Fig 5 legend says Tris pH 7.0); temperature not stated. The note with it: protein: recombinant; tags: His6-SUMO removed by Ulp1; label: 6-FAM forward; blunt.

Data set [9] concerns the target T1, SpxRDBD. As to the kind of experiment: EMSA; second to 5'+10; EMSA: 20 mM HEPES pH 7.2, 50 mM NaCl, 5 mM MgCl2, 1 mM CaCl2, 0.1 mM EDTA, 12% glycerol, 10 mM DTT, 0.5 uM DNA, 400 ng poly(dI-dC); FP: same salts, 2% glycerol, 10 nM DNA (high salt 500 mM NaCl; Fig 5 legend says Tris pH 7.0); temperature not stated. The settings on record: protein: recombinant; tags: His6-SUMO removed by Ulp1; label: 6-FAM forward; blunt.

Data set [10] deals with the molecule itself. As to the kind of experiment: SEC; Superose 6 Increase 10/300 GL, 50 mM Tris-Cl pH 7.0, 500 mM NaCl, 1 mM TCEP; 300 uL at 70 uM; calibrated with molecular weight standards.
Data set [11] has as its target T3, SpxR. As to the kind of experiment: EMSA; shift begins at 312 nM protein; competed by unlabeled 37-CE; EMSA: 20 mM HEPES pH 7.2, 50 mM NaCl, 5 mM MgCl2, 1 mM CaCl2, 0.1 mM EDTA, 12% glycerol, 10 mM DTT, 0.5 uM DNA, 400 ng poly(dI-dC); FP: same salts, 2% glycerol, 10 nM DNA (high salt 500 mM NaCl; Fig 5 legend says Tris pH 7.0); temperature not stated. The settings on record: protein: recombinant; tags: His6-SUMO removed by Ulp1; chain copies: 3; label: 6-FAM on forward strand 5' (EMSA, FP); blunt.

For data set [12], the target named is T2, CpsR. Put plainly: EMSA; shift begins at 625 nM protein; competed by unlabeled 37-CE; EMSA: 20 mM HEPES pH 7.2, 50 mM NaCl, 5 mM MgCl2, 1 mM CaCl2, 0.1 mM EDTA, 12% glycerol, 10 mM DTT, 0.5 uM DNA, 400 ng poly(dI-dC); FP: same salts, 2% glycerol, 10 nM DNA (high salt 500 mM NaCl; Fig 5 legend says Tris pH 7.0); temperature not stated. The settings on record: protein: recombinant; tags: His6-SUMO removed by Ulp1; chain copies: 2; label: 6-FAM on forward strand 5' (EMSA, FP); blunt.

As for “SpxR (SPD_0969), full-length recombinant (natural protein)”, the stoichiometry N in data set [1] was 4 and 8; in [2], 4; in [3], 4; in data set [4] it was 3.

B1: 21-CE Neither (dsDNA)
DNA 1: GTGTGAGAGAGTAGTTTGAAA
DNA 2: TTTCAAACTACTCTCTCACAC
Regarding B1, the binding result in data set [5] and in [6] was “no binding” in each case.

B2: 21-CE SpxR-only (dsDNA)
DNA 1: GTGTACTAGAGTAGTTTGAAA
DNA 2: TTTCAAACTACTCTAGTACAC
Regarding B2, the binding result in data set [6] is reported as “no binding”. In addition, the Kd in data set [7] was 56 nM.

B3: 37-CE 5'+10 (dsDNA)
DNA 1: TGTGTACTATATTATATTGA
DNA 2: TCAATATAATATAGTACACA
For B3, the binding result in data set [6] and in [8] was “binds” each time.

B4: 37-CE 3'+10 (dsDNA)
DNA 1: TGAAACTAGAATAGTACACA
DNA 2: TGTGTACTATTCTAGTTTCA
Turning to B4, the values for the binding result in data set [6] and in data set [9] were “no binding” and “binds”, respectively.

B5: CpsR (SPD_0064), recombinant (natural protein)
chain: MEKENRGKNMAIPKYQYIKDELKNKIISGQFSSGDKFYTEAELISMYDVSSITVVRALNDLAKDGYIVRQQGKGTFVSRARKHKLVEFSDIELFNAKDDKVTVLSIERGNKLVYLEKLGLRGDQFYYKIERIRESNGVVYIYHTSYIPEQYINANYPNLEYYSSIYNRFKLDYHIHMNDEHFEEINEIVFPTPEHAASVLGVDEQFPTVLQTKITKLESTGQVLEYSETYKRSDYYKIKFISCDRDH
notes: CpsR (also called AgaR), transcription factor of Streptococcus pneumoniae D39, locus SPD_0064; 65.72 kDa as a dimer; cpsR amplified from D39 genomic DNA into pE-SUMO; also called AgaR; source: E. coli T7 Express lysY/Iq, purified (Ni-NTA, Ulp1 cleavage, SEC)
As to B5, the “stoichiometry N” value in [10] came to 2.

B6: 21-CE (dsDNA)
DNA 1: GTGTACTATATTATATTGAAA
DNA 2: TTTCAATATAATATAGTACAC
Turning to B6, the dissociation constant Kd in [7] is 71 nM.

B7: 37-CE (dsDNA)
DNA 1: TGTGTACTATATTATATTGAAACTAGAATAGTACACA
DNA 2: TGTGTACTATTCTAGTTTCAATATAATATAGTACACA
With B7, the binding result in [11] and in [12] was “binds” in each case.

B8: 37-CE spacer (17 bp) (dsDNA)
DNA 1: ATTATATTGAAACTAGA
DNA 2: TCTAGTTTCAATATAAT
With B8, the binding result in data set [5] and in [6] was “no binding” throughout.

B9: 21-CE CpsR-only (dsDNA)
DNA 1: GTGTGAGATATTATATTGAAA
DNA 2: TTTCAATATAATATCTCACAC
Turning to B9, the binding result in [5] was “no binding”. In data set [7], the dissociation constant Kd came to 104 nM.

B10: 37-CE 5' (10 bp) (dsDNA)
DNA 1: TGTGTACTAT
DNA 2: ATAGTACACA
Turning to B10, the binding result in data set [5] and in data set [6] was “no binding” throughout.

For orientation: stoichiometry N means the number of molecules, sites or subunits per partner or assembly. A word on the Kd: it is the equilibrium constant for the complex coming apart.
